{
  "source": "patent US20240209068A1",
  "key": {"[1]": {"target": "Clostridium difficile toxin A (purified) (Clostridium difficile) (UniProt P16154)"}, "[2]": {"target": "Clostridium difficile toxin A (purified) (Clostridium difficile) (UniProt P16154)", "assay": "cell-based or functional assay"}},
  "data": [
    {"substance": "Actoxumab IgA2m1 (antibody)", "values": [
      {"measurement": "IC50 (read off the curve); % neutralization of Toxin A on Vero cells (alamarBlue), curve 'Actoxumab IgA2m1 Protein'", "setting": "[1]", "result": 0.03, "unit": "µg/mL"},
      {"measurement": "IC50 (read off the curve); % neutralization of Toxin A on Vero cells (alamarBlue), curve 'Actoxumab IgA2m1 mRNA'", "setting": "[1]", "result": 0.01, "unit": "µg/mL"},
      {"measurement": "potency (IC50) of Toxin A neutralization on Vero cells relative to Actoxumab IgG; antibody from mRNA-transfected cell supernatant", "setting": "[2]", "result": 200, "unit": "fold"},
      {"measurement": "potency (IC50) of Toxin A neutralization on Vero cells relative to Actoxumab IgG; recombinant antibody protein", "setting": "[2]", "result": 200, "unit": "fold"}
    ]}
  ]
}
